Test results published in FireProtDB (doi:10.1021/bi035651x).
Several values for one entry are separate records, joined by “and”; a condition that tells them apart may be missing. Identical values can stand only once.

Settings: Mus musculus, pH 7.4, 20 °C, Urea, Tris-HCl 20 mM, whole UniProt chain shown

B1: Adenosine deaminase wild type, P03958 (protein)
chain: MAQTPAFNKPKVELHVHLDGAIKPETILYFGKKRGIALPADTVEELRNIIGMDKPLSLPGFLAKFDYYMPVIAGCREAIKRIAYEFVEMKAKEGVVYVEVRYSPHLLANSKVDPMPWNQTEGDVTPDDVVDLVNQGLQEGEQAFGIKVRSILCCMRHQPSWSLEVLELCKKYNQKTVVAMDLAGDETIEGSSLFPGHVEAYEGAVKNGIHRTVHAGEVGSPEVVREAVDILKTERVGHGYHTIEDEALYNRLLKENMHFEVCPWSSYLTGAWDPKTTHAVVRFKNDKANYSLNTDDPLIFKSTLDTDYQMTKKDMGFTEEEFKRLNINAAKSSFLPEEEKKELLERLYREYQ
denaturant m value (CD): 0.89 kcal/mol/M and 0.77 kcal/mol/M
denaturant midpoint (higher = more stable) (CD): 6.15 M and 5.77 M
unfolding free energy (CD): 5.47 kcal/mol and 4.44 kcal/mol
denaturant m value (Fluorescence): 0.85 kcal/mol/M
denaturant midpoint (higher = more stable) (Fluorescence): 6.08 M and 5.73 M
unfolding free energy (Fluorescence): 5.17 kcal/mol and 4.87 kcal/mol
